Assay results taken from US20030027246A1, “Immunogenic peptides derived from prostate-specific membrane antigen (PSMA) and uses thereof” (priority 2000, published 2003).

Target: membrane-bound HLA-A0201 molecule on T2 cells (human)
Experiment: T2 cell HLA-A0201 stabilisation at 125.0 µM peptide, BB7.2 staining, flow cytometry
Conditions: remark: other sources report otherwise

| Binder | Fluorescence Index (FI) |
| --- | --- |
| ELAHYDVLL [CLP-330] | 0.7 FI |
| VLAGGFFLL [CLP-328] | 1.3 FI |
